Assays:
[1] = molecular target: Bacillus anthracis zinc uptake regulator protein (BaZur) (Bacillus anthracis (Sterne 34F2)); test: SEC; […] (50 mM Tris HCl pH 8.0, 150 mM NaCl, 5% glycerol), […]
[2] = molecular target: Bacillus anthracis zinc uptake regulator protein (BaZur) (Bacillus anthracis (Sterne 34F2)); test: native gel or EMSA

Substance “Bacillus anthracis zinc uptake regulator protein (BaZur) (natural protein)” has a stoichiometry N [1] of 2 and a stoichiometry N [2] of 2.

Reference: paper PMC6336718
